Reference: paper PMC6675907, “Identification and functional characterisation of a novel N-cyanoamidine neonicotinoid metabolising cytochrome P450, CYP9Q6, from the buff-tailed bumblebee Bombus terrestris” (Insect Biochemistry and Molecular Biology, 2019)

How the values were obtained:
[1] = substrate: C/C(=N\C#N)N(C)Cc1ccc(Cl)nc1; experiment: LC-MS/MS of metabolites, microsomes with recombinant P450/CPR, Michaelis-Menten fit; format: biochemical, Bombus terrestris; conditions: NADPH regeneration system, 30 °C, 1 h, substrate 3.1-200 μM, house fly CPR co-expressed
[2] = substrate: N#C/N=C1\SCCN1Cc1ccc(Cl)nc1; experiment: as above; format: biochemical, Bombus terrestris; conditions: NADPH regeneration system, 30 °C, 1 h, substrate 3.1-200 μM, house fly CPR co-expressed

B1: CYP9Q6 (Bombus terrestris audax) (protein)
chain: MEYLSLGLFLIAILIAIYYCATKNHNLFKKHGILHIPPMPLFGNMGSFFAKRSTLQDTILEAYELHPEAKYVGIYESLTPIIVLRDLDLIKSVNMKNFDHFTDHRNFVFKDMDPIFAGMLFSMKGEQWKEQRSILSLAFTSNKVKDMFNLMSECATRYANYLSNLAENEREMEMRDLLTKYTNDVIATCVYGVSVDTIKNPKNVFYTYGKSTTFTSFKKDMAMLAQRNLPWLAKLFQLRFLEKHIAKFFTEQVINTIEERKQNGTYRSDILQLFIDVNDKKVPGKGMSTENMVNHAFSLFFGGTDSVATQTSFLFYLLAENPEILKRLQEEIDETLENNNGQLTYDAIQKMKYLDAMINEAMRLQPITVFLDRLCVKDFELPPALPGEKPFTVKAGMNIWIPVDAIHHDPKHYENPQKFDPDRFLENGKKIINSGAFMPFGLGPRICIGNRFALTEIKVLLCHILAKCNVKIGSKMLLPLQYEEGVITAYAKNGFWLNVEPREHSYCTSQTNGTTKHLSNGNCRN
notes: with NADPH--cytochrome P450 reductase (Musca domestica, house fly)
Km [1]: 27.32 µM | Km [2]: 15.83 µM
